The values that follow come from patent US20160333062A1 (REGENTS OF THE UNIVERSITY OF COLORADO A BODY CORPORATE, published 2016).

Non-standard residues stand in square brackets, D forms with d. No end group written: not given here.

First the molecules themselves.
B1: Control C (peptide)
peptide: Ac-ELEKGGLEGEKGGKELEK-NH2
notes: also called control peptide C; random coil control peptide (C)
B2: D-Piscidin 1 (peptide)
peptide: [dF][dF][dH][dH][dI][dF][dR]G[dI][dV][dH][dV]G[dK][dT][dI][dH][dR][dL][dV][dT]G-NH2
modifications: N-terminus assumed
SMILES: CC[C@@H](C)[C@@H](NC(=O)CNC(=O)[C@@H](CCCNC(=N)N)NC(=O)[C@@H](Cc1ccccc1)NC(=O)[C@H](NC(=O)[C@@H](Cc1c[nH]cn1)NC(=O)[C@@H](Cc1c[nH]cn1)NC(=O)[C@@H](Cc1ccccc1)NC(=O)[C@H](N)Cc1ccccc1)[C@H](C)CC)C(=O)N[C@@H](C(=O)N[C@H](Cc1c[nH]cn1)C(=O)N[C@@H](C(=O)NCC(=O)N[C@H](CCCCN)C(=O)N[C@@H](C(=O)N[C@@H](C(=O)N[C@H](Cc1c[nH]cn1)C(=O)N[C@H](CCCNC(=N)N)C(=O)N[C@H](CC(C)C)C(=O)N[C@@H](C(=O)N[C@@H](C(=O)NCC(N)=O)[C@H](C)O)C(C)C)[C@H](C)CC)[C@H](C)O)C(C)C)C(C)C
notes: also called native D-Piscidin 1
B3: D-Dermaseptin S4 L7K, A14K (peptide)
peptide: [dA][dL][dW][dM][dT][dL][dK][dK][dK][dV][dL][dK][dA][dK][dA][dK][dA][dL][dN][dA][dV][dL][dV]G[dA][dN][dA]-NH2
modifications: N-terminus assumed
SMILES: CSCC[C@@H](NC(=O)[C@@H](Cc1c[nH]c2ccccc12)NC(=O)[C@@H](CC(C)C)NC(=O)[C@@H](C)N)C(=O)N[C@@H](C(=O)N[C@H](CC(C)C)C(=O)N[C@H](CCCCN)C(=O)N[C@H](CCCCN)C(=O)N[C@H](CCCCN)C(=O)N[C@@H](C(=O)N[C@H](CC(C)C)C(=O)N[C@H](CCCCN)C(=O)N[C@H](C)C(=O)N[C@H](CCCCN)C(=O)N[C@H](C)C(=O)N[C@H](CCCCN)C(=O)N[C@H](C)C(=O)N[C@H](CC(C)C)C(=O)N[C@H](CC(N)=O)C(=O)N[C@H](C)C(=O)N[C@@H](C(=O)N[C@H](CC(C)C)C(=O)N[C@@H](C(=O)NCC(=O)N[C@H](C)C(=O)N[C@H](CC(N)=O)C(=O)N[C@H](C)C(N)=O)C(C)C)C(C)C)C(C)C)[C@H](C)O
notes: Synthetic all-D analog; also called D-Dermaseptin S4 L7K, A14K (27-mer)
B4: D-Piscidin 1 G13K (peptide)
peptide: [dF][dF][dH][dH][dI][dF][dR]G[dI][dV][dH][dV][dK][dK][dT][dI][dH][dR][dL][dV][dT]G-NH2
modifications: N-terminus assumed
SMILES: CC[C@@H](C)[C@@H](NC(=O)CNC(=O)[C@@H](CCCNC(=N)N)NC(=O)[C@@H](Cc1ccccc1)NC(=O)[C@H](NC(=O)[C@@H](Cc1c[nH]cn1)NC(=O)[C@@H](Cc1c[nH]cn1)NC(=O)[C@@H](Cc1ccccc1)NC(=O)[C@H](N)Cc1ccccc1)[C@H](C)CC)C(=O)N[C@@H](C(=O)N[C@H](Cc1c[nH]cn1)C(=O)N[C@@H](C(=O)N[C@H](CCCCN)C(=O)N[C@H](CCCCN)C(=O)N[C@@H](C(=O)N[C@@H](C(=O)N[C@H](Cc1c[nH]cn1)C(=O)N[C@H](CCCNC(=N)N)C(=O)N[C@H](CC(C)C)C(=O)N[C@@H](C(=O)N[C@@H](C(=O)NCC(N)=O)[C@H](C)O)C(C)C)[C@H](C)CC)[C@H](C)O)C(C)C)C(C)C
notes: Synthetic all-D analog; also called D-Piscidin G13K
B5: D-Dermaseptin S4 L7K (peptide)
peptide: [dA][dL][dW][dM][dT][dL][dK][dK][dK][dV][dL][dK][dA][dA][dA][dK][dA][dL][dN][dA][dV][dL][dV]G[dA][dN][dA]-NH2
modifications: N-terminus assumed
SMILES: CSCC[C@@H](NC(=O)[C@@H](Cc1c[nH]c2ccccc12)NC(=O)[C@@H](CC(C)C)NC(=O)[C@@H](C)N)C(=O)N[C@@H](C(=O)N[C@H](CC(C)C)C(=O)N[C@H](CCCCN)C(=O)N[C@H](CCCCN)C(=O)N[C@H](CCCCN)C(=O)N[C@@H](C(=O)N[C@H](CC(C)C)C(=O)N[C@H](CCCCN)C(=O)N[C@H](C)C(=O)N[C@H](C)C(=O)N[C@H](C)C(=O)N[C@H](CCCCN)C(=O)N[C@H](C)C(=O)N[C@H](CC(C)C)C(=O)N[C@H](CC(N)=O)C(=O)N[C@H](C)C(=O)N[C@@H](C(=O)N[C@H](CC(C)C)C(=O)N[C@@H](C(=O)NCC(=O)N[C@H](C)C(=O)N[C@H](CC(N)=O)C(=O)N[C@H](C)C(N)=O)C(C)C)C(C)C)C(C)C)[C@H](C)O
notes: Synthetic all-D analog; also called D-Dermaseptin S4 L7K (27-mer)
B6: D-Piscidin 1 V12K (peptide)
peptide: [dF][dF][dH][dH][dI][dF][dR]G[dI][dV][dH][dK]G[dK][dT][dI][dH][dR][dL][dV][dT]G-NH2
modifications: N-terminus assumed
SMILES: CC[C@@H](C)[C@@H](NC(=O)CNC(=O)[C@@H](CCCNC(=N)N)NC(=O)[C@@H](Cc1ccccc1)NC(=O)[C@H](NC(=O)[C@@H](Cc1c[nH]cn1)NC(=O)[C@@H](Cc1c[nH]cn1)NC(=O)[C@@H](Cc1ccccc1)NC(=O)[C@H](N)Cc1ccccc1)[C@H](C)CC)C(=O)N[C@@H](C(=O)N[C@H](Cc1c[nH]cn1)C(=O)N[C@H](CCCCN)C(=O)NCC(=O)N[C@H](CCCCN)C(=O)N[C@@H](C(=O)N[C@@H](C(=O)N[C@H](Cc1c[nH]cn1)C(=O)N[C@H](CCCNC(=N)N)C(=O)N[C@H](CC(C)C)C(=O)N[C@@H](C(=O)N[C@@H](C(=O)NCC(N)=O)[C@H](C)O)C(C)C)[C@H](C)CC)[C@H](C)O)C(C)C
notes: Synthetic all-D analog
B7: D-Piscidin 1 I9K (peptide)
peptide: [dF][dF][dH][dH][dI][dF][dR]G[dK][dV][dH][dV]G[dK][dT][dI][dH][dR][dL][dV][dT]G-NH2
modifications: N-terminus assumed
SMILES: CC[C@@H](C)[C@@H](NC(=O)[C@@H](Cc1c[nH]cn1)NC(=O)[C@@H](Cc1c[nH]cn1)NC(=O)[C@@H](Cc1ccccc1)NC(=O)[C@H](N)Cc1ccccc1)C(=O)N[C@H](Cc1ccccc1)C(=O)N[C@H](CCCNC(=N)N)C(=O)NCC(=O)N[C@H](CCCCN)C(=O)N[C@@H](C(=O)N[C@H](Cc1c[nH]cn1)C(=O)N[C@@H](C(=O)NCC(=O)N[C@H](CCCCN)C(=O)N[C@@H](C(=O)N[C@@H](C(=O)N[C@H](Cc1c[nH]cn1)C(=O)N[C@H](CCCNC(=N)N)C(=O)N[C@H](CC(C)C)C(=O)N[C@@H](C(=O)N[C@@H](C(=O)NCC(N)=O)[C@H](C)O)C(C)C)[C@H](C)CC)[C@H](C)O)C(C)C)C(C)C
notes: Synthetic all-D analog; also called D-Piscidin I9K

The first data set concerns the molecule itself. Nature of the data set: RP-HPLC temperature profiling, 5 to 80 C, pH 2 (self-association). Here is the method: (§1) The purity of the peptides was verified by analytical RP-HPLC and the peptides were characterized by mass spectrometry (LC/MS). Crude and purified peptides were analyzed on an Agilent 1100 series liquid chromatograph (Little Falls, Del., USA). Analytical runs were performed on a Zorbax 300 SB-C₈ column (150×2.1 mm I.D.; 5 μm particle size, 300 Å pore size) from Agilent Technologies using a linear AB gradient (1% acetonitrile/min) and a flow rate of 0.25 mL/min, where eluent A was 0.2% aqueous TFA, pH 2, and eluent B was 0.18% TFA in acetonitrile. Temperature profiling analyses were performed on the same column in 3° C. increments, from 5° C. to 80° C. using a linear AB gradient of 0.5% acetonitrile/min.
Control peptide C is a monomeric random coil peptide in both aqueous and hydrophobic media; thus, its linear decrease in peptide retention behavior with increasing temperature within the range of 5° C. to 80° C. represents only the general effects of temperature due to greater solute diffusivity and enhanced mass transfer between the stationary and mobile phase at higher temperatures. To allow for these general temperature effects, the data for the control peptide was subtracted from each temperature profile, as shown in FIG. 6B. Thus, the peptide self-association parameter, PA, represents the maximum change in peptide retention time relative to the random coil peptide C. […]
As for B1, the binding result was “no binding”.

A further data set deals with the molecule itself. Nature of the data set: RP-HPLC temperature profiling, self-association (dimerization/oligomerization). Here is the method: as §1
^atR denotes retention time in RP-HPLC at pH 2 and room temperature, and is a measure of overall peptide hydrophobicity. ^bThe mean residue molar ellipticities [θ]₂₂₂ (deg cm²/dmol) at wavelength 222 nm were measured at 5° C. in benign conditions (100 mM KCl, 50 mM NaH₂PO₄/Na₂HPO₄, pH 7.0) or in benign buffer containing 50% trifluoroethanol (TFE) by circular dichroism spectroscopy. ^cThe helical content (as a percentage) of a peptide relative to the molar ellipticity value of parent peptide (D-Piscidin 1 or D-Dermaseptin S4) in the presence of 50% TFE. ^dPA denotes self-association parameter (dimerization/oligomerization) of each peptide during RP-HPLC temperature profiling, which is the maximal retention time difference of (tR^t-tR⁵ for peptide analogs)-(tR^t-tR⁵ for control peptide C) within the temperature range; tR^t-tR⁵ is the retention time difference of a peptide at a specific temperature (tR^{t)} compared with that at 5° C. (tR⁵). The sequence of the random coil control peptide C is shown in Table 1. ^eAmphipathicity was determined by calculation of hydrophobic moment using hydrophobicity coefficients determined by reversed-phase chromatography; see methods for details. The amphipathicity values for D-Dermaseptin S4 and its analogs (residues 1-14) are shown in brackets.
As for B2, the “PA (self-association parameter)” value was 0.78 min.

For B3, the “PA (self-association parameter)” value came out at 2.29 min.

For B4, the “PA (self-association parameter)” value was 0.95 min.

Consider B5, for which the “PA (self-association parameter)” value turned out to be 4.8 min.

As for B6, the “PA (self-association parameter)” value was found to be 0.69 min.

Turning to B7, the “PA (self-association parameter)” value was 1.29 min.
